This is an account of results in publication PMC2191783.

The target in this data set is PU.1 (recombinant) (mouse, UniProt P17433 1-272). Briefly: EMSA. (Mobility shift assays separate free from complexed probe on a gel.)

B1: c-fms -150 PU-ets wild type (dsDNA)
DNA 1: GCCCAAGGAGGAGGAAGAGGAAAACAAG
DNA 2: CTTGTTTTCCTCTTCCTCCTCCTTGGGC
Regarding B1, the binding result is “binds”.

B2: c-fms -150 mutant M1 (MT-1) (dsDNA)
DNA 1: GCCCAAGTAGTAGTAAGAGTAAAACAAG
DNA 2: CTTGTTTTACTCTTACTACTACTTGGGC
As to B2, the binding result is recorded as “no binding”.
